The target in the assay is hdac2_mouse Hdac2 (UniProt P70288).
Chain of hdac2_mouse Hdac2 (P70288 whole entry): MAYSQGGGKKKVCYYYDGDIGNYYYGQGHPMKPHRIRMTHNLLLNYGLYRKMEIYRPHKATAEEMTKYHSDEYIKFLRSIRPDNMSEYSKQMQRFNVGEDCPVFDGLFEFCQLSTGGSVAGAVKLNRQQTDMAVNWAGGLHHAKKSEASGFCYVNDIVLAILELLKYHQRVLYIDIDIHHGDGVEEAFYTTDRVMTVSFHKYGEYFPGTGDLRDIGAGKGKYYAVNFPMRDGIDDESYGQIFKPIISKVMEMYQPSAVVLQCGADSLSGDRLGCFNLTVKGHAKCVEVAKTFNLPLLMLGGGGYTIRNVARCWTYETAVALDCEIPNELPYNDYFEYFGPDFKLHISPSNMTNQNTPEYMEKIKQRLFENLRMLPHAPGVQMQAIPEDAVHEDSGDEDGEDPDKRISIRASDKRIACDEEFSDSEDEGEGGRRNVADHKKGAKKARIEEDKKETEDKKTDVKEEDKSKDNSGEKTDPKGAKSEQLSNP

Chain of PR domain zinc finger protein 1 (Homo sapiens), O75626-2 K778R (O75626 37-825, stated change not applied): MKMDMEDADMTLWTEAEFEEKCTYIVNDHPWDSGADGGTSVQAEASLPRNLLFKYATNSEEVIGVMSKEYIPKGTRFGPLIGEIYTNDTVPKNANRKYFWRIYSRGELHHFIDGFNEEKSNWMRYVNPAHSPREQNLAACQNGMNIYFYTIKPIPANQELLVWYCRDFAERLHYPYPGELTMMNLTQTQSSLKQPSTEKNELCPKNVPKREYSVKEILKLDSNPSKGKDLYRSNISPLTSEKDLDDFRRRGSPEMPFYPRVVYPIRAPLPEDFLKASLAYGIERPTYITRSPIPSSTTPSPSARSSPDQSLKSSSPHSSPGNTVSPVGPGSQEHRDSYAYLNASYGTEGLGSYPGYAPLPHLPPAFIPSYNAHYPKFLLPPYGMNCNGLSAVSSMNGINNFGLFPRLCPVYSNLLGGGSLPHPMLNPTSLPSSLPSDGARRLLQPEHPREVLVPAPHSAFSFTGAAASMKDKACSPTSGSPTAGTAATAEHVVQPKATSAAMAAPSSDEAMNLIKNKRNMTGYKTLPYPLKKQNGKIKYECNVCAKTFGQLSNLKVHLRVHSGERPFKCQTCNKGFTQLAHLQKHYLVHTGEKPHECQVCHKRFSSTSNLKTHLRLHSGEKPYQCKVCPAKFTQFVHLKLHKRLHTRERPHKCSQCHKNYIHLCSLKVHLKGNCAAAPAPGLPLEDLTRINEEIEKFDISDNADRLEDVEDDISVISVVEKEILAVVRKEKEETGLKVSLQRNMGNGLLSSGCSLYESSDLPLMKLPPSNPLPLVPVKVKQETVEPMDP

Consider “PR domain zinc finger protein 1 (Homo sapiens), O75626-2 K778R”, for which the “effect of a mutation on the interaction” value is listed as “decreasing interaction”.

These data come from IntAct's records for PubMed 22555612.
